Test results from the supplement of paper PMC11780869.

Test system: Bacillus subtilis
Experiment: cleaved RNA product abundance (RNA/gDNA barcode ratio) relative to median wild-type variant (ratio to wild type); higher = more accumulation of the downstream cleavage product
Conditions: experiment (reporter, strain, medium): exp 8a: truncated aprE reporter, strain BJT201 with 2% xylose (RNase J1 expressed); cleavage site: glnRA (positions -5 to +31 mutated)
Outline: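 In LB at 37°C, B. subtilis cultures went from OD600 0.0003 to 0.3. Their chromosomes held barcoded reporter mRNAs, truncated aprE or tetM, with RNase Y cleavage-site windows mutagenized via oligos at a 9% error rate. Cleaved RNA, chosen by gel, was reverse transcribed and barcode-sequenced alongside genomic DNA barcodes with UMI collapsing, giving a per-construct RNA:gDNA ratio scaled to the median construct with the unmutated site. This scaled ratio is termed cleaved product abundance.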

Sequence | cleaved RNA product abundance
CGACATGTCCCGCTTCTTTCATTAATCCGTTAGCAACCGTTATGCTATATACATTTACCTTTTAAGAGGAGGAAT | 0.316
CGACATGTCCCGCTTCTTTCATTAATCCGTTAGCAACCGTTTTGCAATATACATTTACCTTTTAAGAGGAGGAAT | 0.344
CGACATGTCCCGCTTCTTTCATTAATCCGTTAGCAACCGTTTTGCTAAATACATTTACCTTTTAAGAGGAGGAAT | 0.432
CGACATGTCCCGCTTCTTTCATTAATCCGTTAGCAACCGTTTTGCTATATACATTTACATTTTAAGAGGAGGAAT | 0.523
CGACATGTCCCGCTTCTTTCATTAATCCGTTAGCAACCGTTTTGCTATATACATTTACCTTTTAAGAGGAGGAAT | 0.617
CGACATGTCCCGCTTCTTTCATTAATCCGTTAGCAACCGTTTTGCTTTATACATTTACCTTTTAAGAGGAGGAAT | 0.145
CGACATGTCCCGCTTCTTTCATTAATCCGTTAGCAACCGTTTTGGTATATACATTTACCTTTTAAGAGGAGGAAT | 0.187
CGACATGTCCCGCTTCTTTCATTAATCCGTTAGCAACCGTTTTTCTATATACATTTACCTTTTAAGAGGAGGAAT | 0.384
CGACATGTCCCGCTTCTTTCATTAATCCGTTAGCAACCTTTTTGCTATATACATTTACCTTTTAAGAGGAGGAAT | 1.44
CGACATGTCCCGCTTCTTTCATTAATCCGTTAGCAACGGTTGTGCTATATACATTTACCTTTTAAGAGGAGGAAT | 0.353
CGACATGTCCCGCTTCTTTCATTAATCCGTTAGCAACGGTTTTACTATATACATTTACCTTTTAAGAGGAGGAAT | 0.495
CGACATGTCCCGCTTCTTTCATTAATCCGTTAGCAACGGTTTTGATATATACATTTACCTTTTAAGAGGAGGAAT | 0.515
CGACATGTCCCGCTTCTTTCATTAATCCGTTAGCAACGGTTTTGCCATATACATTTACCTTTTAAGAGGAGGAAT | 0.202
CGACATGTCCCGCTTCTTTCATTAATCCGTTAGCAACGGTTTTGCTATATACATTTACCTTTTAAGAGGAGGAAT | 0.387
CGACATGTCCCGCTTCTTTCATTAATCCGTTAGCAACGGTTTTGTTATATACATTTACCTTTTAAGAGGAGGAAT | 0.364
CGACATGTCCCGCTTCTTTCATTAATCCGTTAGCAACTAATTTGCTATATACATTTACCTTTTAAGAGGAGGAAT | 1.85
CGACATGTCCCGCTTCTTTCATTAATCCGTTAGCAACTAGTTTGCTATATACATTTACCTTTTAAGAGGAGGAAT | 1.29

Sequence | cleaved RNA product abundance
CGACATGTCCCGCTTCTTTCATTAATCCGTTAGCAACTATATTGCTATATACATTTACCTTTTAAGAGGAGGAAT | 1.45
CGACATGTCCCGCTTCTTTCATTAATCCGTTAGCAACTATTATGCTATATACATTTACCTTTTAAGAGGAGGAAT | 0.785
CGACATGTCCCGCTTCTTTCATTAATCCGTTAGCAACTATTCTGCTATATACATTTACCTTTTAAGAGGAGGAAT | 0.838
CGACATGTCCCGCTTCTTTCATTAATCCGTTAGCAACTATTTAGCTATATACATTTACCTTTTAAGAGGAGGAAT | 1.01
CGACATGTCCCGCTTCTTTCATTAATCCGTTAGCAACTATTTTACTATATACATTTACCTTTTAAGAGGAGGAAT | 0.726
CGACATGTCCCGCTTCTTTCATTAATCCGTTAGCAACTATTTTGATATATACATTTACCTTTTAAGAGGAGGAAT | 0.503
CGACATGTCCCGCTTCTTTCATTAATCCGTTAGCAACTATTTTGCAATATACATTTACCTTTTAAGAGGAGGAAT | 0.531
CGACATGTCCCGCTTCTTTCATTAATCCGTTAGCAACTATTTTGCCATATACATTTACCTTTTAAGAGGAGGAAT | 0.121
CGACATGTCCCGCTTCTTTCATTAATCCGTTAGCAACTATTTTGCTATAAACATTTACCTTTTAAGAGGAGGAAT | 1
CGACATGTCCCGCTTCTTTCATTAATCCGTTAGCAACTATTTTGCTATATACAATTACCTTTTAAGAGGAGGAAT | 1.98
CGACATGTCCCGCTTCTTTCATTAATCCGTTAGCAACTATTTTGCTATATACACTTACCTTTTAAGAGGAGGAAT | 1.29
CGACATGTCCCGCTTCTTTCATTAATCCGTTAGCAACTATTTTGCTATATACATCTACCTTTTAAGAGGAGGAAT | 0.944
CGACATGTCCCGCTTCTTTCATTAATCCGTTAGCAACTATTTTGCTATATACATGTACCTTTTAAGAGGAGGAAT | 1.19
CGACATGTCCCGCTTCTTTCATTAATCCGTTAGCAACTATTTTGCTATATACATTTACATTTTAAGAGGAGGAAT | 3.23
CGACATGTCCCGCTTCTTTCATTAATCCGTTAGCAACTATTTTGCTATATACATTTACCCTTTAAGAGGAGGAAT | 0.937
CGACATGTCCCGCTTCTTTCATTAATCCGTTAGCAACTATTTTGCTATATACATTTACCTTTTAAGAGGAGGAAT | 1.34
